The structures appear in SMILES notation. Residues, ends and D or L forms follow the SMILES beside them. *: point of attachment. Doxorubicin(3'-N) = COc1cccc2c1C(=O)c1c(O)c3c(c(O)c1C2=O)C[C@@](O)(C(=O)CO)C[C@@H]3O[C@H]1C[C@H](N*)[C@H](O)[C@H](C)O1; MaleimidoPEG4propanoyl = O=C1C=CC(=O)N1CCOCCOCCOCCOCCC(=O)*; Hexanoyl(6-maleimido) = O=C1C=CC(=O)N1CCCCCC(=O)*; Butanoyl(4-maleimido) = O=C1C=CC(=O)N1CCCC(=O)*; Propanoyl(3-maleimido) = O=C1C=CC(=O)N1CCC(=O)*; X1 = O=C1C=CC(=O)N1CCOCCOCCOCCC(=O)*; PEG6 = NCCOCCOCCOCCOCCOCCOCCC(=O)O; X2 = O=C1C=CC(=O)N1CCOCCOCCC(=O)*; PEG4 = NCCOCCOCCOCCOCCC(=O)O; PEG3 = NCCOCCOCCOCCC(=O)O; PEG2 = NCCOCCOCCC(=O)O

A short description of the data set: Water solubility of freeze-dried compounds in water (observation and HPLC).
In general, solubility refers to how much of the substance goes into solution per volume. Read a high solubility as much dissolved substance. As for `COc1cccc2c1C(=O)c1c(O)c3c(c(O)c1C2=O)C[C@@](O)(C(=O)CO)C[C@@H]3O[C@H]1C[C@H](NC(=O)[C@H](CC(C)C)NC(=O)[C@H](CC(N)=O)NC(=O)[C@H](C)NC(=O)[C@H](C)NC(=O)[C@H](CCC(=O)O)NC(=O)CCOCCOCCNC(=O)CCN2C(=O)C=CC2=O)[C@H](O)[C@H](C)O1` [QHL-039] ({Propanoyl(3-maleimido)-PEG2}-EAANL-{Doxorubicin(3'-N)}), the solubility was > 20 mg/mL. With `COc1cccc2c1C(=O)c1c(O)c3c(c(O)c1C2=O)C[C@@](O)(C(=O)CO)C[C@@H]3O[C@H]1C[C@H](NC(=O)[C@H](CC(C)C)NC(=O)[C@H](CC(N)=O)NC(=O)[C@H](C)NC(=O)[C@H](C)NC(=O)[C@H](CC(=O)O)NC(=O)CCOCCOCCOCCNC(=O)CCN2C(=O)C=CC2=O)[C@H](O)[C@H](C)O1` [QHL-048] ({Propanoyl(3-maleimido)-PEG3}-DAANL-{Doxorubicin(3'-N)}) the figure was > 20 mg/mL. With `COc1cccc2c1C(=O)c1c(O)c3c(c(O)c1C2=O)C[C@@](O)(C(=O)CO)C[C@@H]3O[C@H]1C[C@H](NC(=O)[C@H](CC(C)C)NC(=O)[C@H](CC(N)=O)NC(=O)[C@H](C)NC(=O)[C@H](C)NC(=O)CNC(=O)CCCCCN2C(=O)C=CC2=O)[C@H](O)[C@H](C)O1` [QHL-121] ({Hexanoyl(6-maleimido)}-GAANL-{Doxorubicin(3'-N)}) the figure was > 10 mg/mL. With `COc1cccc2c1C(=O)c1c(O)c3c(c(O)c1C2=O)C[C@@](O)(C(=O)CO)C[C@@H]3O[C@H]1C[C@H](NC(=O)[C@H](CC(C)C)NC(=O)[C@H](CC(N)=O)NC(=O)[C@H](C)NC(=O)[C@H](C)NC(=O)[C@H](CC(=O)O)NC(=O)CCOCCOCCNC(=O)CCN2C(=O)C=CC2=O)[C@H](O)[C@H](C)O1` [QHL-042] ({Propanoyl(3-maleimido)-PEG2}-DAANL-{Doxorubicin(3'-N)}) the figure was > 20 mg/mL. With `COc1cccc2c1C(=O)c1c(O)c3c(c(O)c1C2=O)C[C@@](O)(C(=O)CO)C[C@@H]3O[C@H]1C[C@H](NC(=O)[C@H](CC(C)C)NC(=O)[C@H](CC(N)=O)NC(=O)[C@H](C)NC(=O)[C@H](C)NC(=O)[C@H](CS)NC(=O)CCCCCN2C(=O)C=CC2=O)[C@H](O)[C@H](C)O1` [QHL-131] ({Hexanoyl(6-maleimido)}-CAANL-{Doxorubicin(3'-N)}), the solubility was > 10 mg/mL.

With `COc1cccc2c1C(=O)c1c(O)c3c(c(O)c1C2=O)C[C@@](O)(C(=O)CO)C[C@@H]3O[C@H]1C[C@H](NC(=O)[C@H](CC(C)C)NC(=O)[C@H](CC(N)=O)NC(=O)[C@H](C)NC(=O)[C@H](C)NC(=O)[C@H](CC(=O)O)NC(=O)CCOCCOCCN2C(=O)C=CC2=O)[C@H](O)[C@H](C)O1` [QHL-033] (X2-DAANL-{Doxorubicin(3'-N)}), the solubility was > 20 mg/mL. The same measure for `COc1cccc2c1C(=O)c1c(O)c3c(c(O)c1C2=O)C[C@@](O)(C(=O)CO)C[C@@H]3O[C@H]1C[C@H](NC(=O)[C@H](CC(C)C)NC(=O)[C@H](CC(N)=O)NC(=O)[C@H](C)NC(=O)[C@H](C)NC(=O)[C@@H](NC(=O)CCCCCN2C(=O)C=CC2=O)[C@@H](C)O)[C@H](O)[C@H](C)O1` [QHL-130] ({Hexanoyl(6-maleimido)}-TAANL-{Doxorubicin(3'-N)}): > 2 mg/mL; for `COc1cccc2c1C(=O)c1c(O)c3c(c(O)c1C2=O)C[C@@](O)(C(=O)CO)C[C@@H]3O[C@H]1C[C@H](NC(=O)[C@H](CC(C)C)NC(=O)[C@H](CC(N)=O)NC(=O)[C@H](C)NC(=O)[C@H](C)NC(=O)[C@H](CCC(=O)O)NC(=O)CCOCCOCCOCCOCCNC(=O)CCCN2C(=O)C=CC2=O)[C@H](O)[C@H](C)O1` [QHL-075] ({Butanoyl(4-maleimido)-PEG4}-EAANL-{Doxorubicin(3'-N)}): > 25 mg/mL; for `COc1cccc2c1C(=O)c1c(O)c3c(c(O)c1C2=O)C[C@@](O)(C(=O)CO)C[C@@H]3O[C@H]1C[C@H](NC(=O)[C@H](CC(C)C)NC(=O)[C@H](CC(N)=O)NC(=O)[C@H](C)NC(=O)[C@H](C)NC(=O)CCOCCOCCOCCOCCNC(=O)CCCN2C(=O)C=CC2=O)[C@H](O)[C@H](C)O1` [QHL-105] ({Butanoyl(4-maleimido)-PEG4}-AANL-{Doxorubicin(3'-N)}): > 10 mg/mL. Turning to `COc1cccc2c1C(=O)c1c(O)c3c(c(O)c1C2=O)C[C@@](O)(C(=O)CO)C[C@@H]3O[C@H]1C[C@H](NC(=O)[C@H](CC(C)C)NC(=O)[C@H](CC(N)=O)NC(=O)[C@H](C)NC(=O)[C@H](C)NC(=O)[C@H](CCC(=O)O)NC(=O)CCOCCOCCOCCNC(=O)CCN2C(=O)C=CC2=O)[C@H](O)[C@H](C)O1` [QHL-045] ({Propanoyl(3-maleimido)-PEG3}-EAANL-{Doxorubicin(3'-N)}), the solubility is > 20 mg/mL. With `COc1cccc2c1C(=O)c1c(O)c3c(c(O)c1C2=O)C[C@@](O)(C(=O)CO)C[C@@H]3O[C@H]1C[C@H](NC(=O)[C@H](CC(C)C)NC(=O)[C@H](CC(N)=O)NC(=O)[C@H](C)NC(=O)[C@H](C)NC(=O)[C@H](CC(C)C)NC(=O)CCCCCN2C(=O)C=CC2=O)[C@H](O)[C@H](C)O1` [QHL-124] ({Hexanoyl(6-maleimido)}-LAANL-{Doxorubicin(3'-N)}) the figure was > 5 mg/mL. The same measure for `COc1cccc2c1C(=O)c1c(O)c3c(c(O)c1C2=O)C[C@@](O)(C(=O)CO)C[C@@H]3O[C@H]1C[C@H](NC(=O)[C@H](CC(C)C)NC(=O)[C@H](CC(N)=O)NC(=O)[C@H](C)NC(=O)[C@H](C)NC(=O)[C@H](CCC(=O)O)NC(=O)CCOCCOCCOCCOCCOCCOCCNC(=O)CCN2C(=O)C=CC2=O)[C@H](O)[C@H](C)O1` [QHL-057] ({Propanoyl(3-maleimido)-PEG6}-EAANL-{Doxorubicin(3'-N)}): > 25 mg/mL; for `COc1cccc2c1C(=O)c1c(O)c3c(c(O)c1C2=O)C[C@@](O)(C(=O)CO)C[C@@H]3O[C@H]1C[C@H](NC(=O)[C@H](CC(C)C)NC(=O)[C@H](CC(N)=O)NC(=O)[C@H](C)NC(=O)[C@H](C)NC(=O)CCOCCOCCOCCNC(=O)CCN2C(=O)C=CC2=O)[C@H](O)[C@H](C)O1` [QHL-090] ({Propanoyl(3-maleimido)-PEG3}-AANL-{Doxorubicin(3'-N)}): > 10 mg/mL; for `COc1cccc2c1C(=O)c1c(O)c3c(c(O)c1C2=O)C[C@@](O)(C(=O)CO)C[C@@H]3O[C@H]1C[C@H](NC(=O)[C@H](CC(C)C)NC(=O)[C@H](CC(N)=O)NC(=O)[C@H](C)NC(=O)[C@H](C)NC(=O)[C@H](CCCNC(=N)N)NC(=O)CCCCCN2C(=O)C=CC2=O)[C@H](O)[C@H](C)O1` [QHL-136] ({Hexanoyl(6-maleimido)}-RAANL-{Doxorubicin(3'-N)}): > 2 mg/mL. With `COc1cccc2c1C(=O)c1c(O)c3c(c(O)c1C2=O)C[C@@](O)(C(=O)CO)C[C@@H]3O[C@H]1C[C@H](NC(=O)[C@H](CC(C)C)NC(=O)[C@H](CC(N)=O)NC(=O)[C@H](C)NC(=O)[C@H](C)NC(=O)[C@H](CC(=O)O)NC(=O)CCOCCOCCOCCOCCOCCOCCNC(=O)CCCN2C(=O)C=CC2=O)[C@H](O)[C@H](C)O1` [QHL-084] ({Butanoyl(4-maleimido)-PEG6}-DAANL-{Doxorubicin(3'-N)}) the figure was > 30 mg/mL; with `COc1cccc2c1C(=O)c1c(O)c3c(c(O)c1C2=O)C[C@@](O)(C(=O)CO)C[C@@H]3O[C@H]1C[C@H](NC(=O)[C@H](CC(C)C)NC(=O)[C@H](CC(N)=O)NC(=O)[C@H](C)NC(=O)[C@H](C)NC(=O)[C@H](CCC(=O)O)NC(=O)CCOCCOCCOCCOCCNC(=O)CCN2C(=O)C=CC2=O)[C@H](O)[C@H](C)O1` [QHL-051] ({Propanoyl(3-maleimido)-PEG4}-EAANL-{Doxorubicin(3'-N)}), > 25 mg/mL. Turning to `COc1cccc2c1C(=O)c1c(O)c3c(c(O)c1C2=O)C[C@@](O)(C(=O)CO)C[C@@H]3O[C@H]1C[C@H](NC(=O)[C@H](CC(C)C)NC(=O)[C@H](CC(N)=O)NC(=O)[C@H](C)NC(=O)[C@H](C)NC(=O)[C@H](CCC(=O)O)NC(=O)CCOCCOCCOCCN2C(=O)C=CC2=O)[C@H](O)[C@H](C)O1` [QHL-022] (X1-EAANL-{Doxorubicin(3'-N)}), the solubility is > 20 mg/mL.

With `COc1cccc2c1C(=O)c1c(O)c3c(c(O)c1C2=O)C[C@@](O)(C(=O)CO)C[C@@H]3O[C@H]1C[C@H](NC(=O)[C@H](CC(C)C)NC(=O)[C@H](CC(N)=O)NC(=O)[C@H](C)NC(=O)[C@H](C)NC(=O)[C@H](CC(=O)O)NC(=O)CCOCCOCCOCCOCCNC(=O)CCN2C(=O)C=CC2=O)[C@H](O)[C@H](C)O1` [QHL-054] ({Propanoyl(3-maleimido)-PEG4}-DAANL-{Doxorubicin(3'-N)}), the solubility was > 25 mg/mL. The same measure for `COc1cccc2c1C(=O)c1c(O)c3c(c(O)c1C2=O)C[C@@](O)(C(=O)CO)C[C@@H]3O[C@H]1C[C@H](NC(=O)[C@H](CC(C)C)NC(=O)[C@H](CC(N)=O)NC(=O)[C@H](C)NC(=O)[C@H](C)NC(=O)[C@H](CCC(=O)O)NC(=O)CCOCCOCCNC(=O)CCCN2C(=O)C=CC2=O)[C@H](O)[C@H](C)O1` [QHL-063] ({Butanoyl(4-maleimido)-PEG2}-EAANL-{Doxorubicin(3'-N)}): > 15 mg/mL; for `COc1cccc2c1C(=O)c1c(O)c3c(c(O)c1C2=O)C[C@@](O)(C(=O)CO)C[C@@H]3O[C@H]1C[C@H](NC(=O)[C@H](CC(C)C)NC(=O)[C@H](CC(N)=O)NC(=O)[C@H](C)NC(=O)[C@H](C)NC(=O)[C@H](CCSC)NC(=O)CCCCCN2C(=O)C=CC2=O)[C@H](O)[C@H](C)O1` [QHL-126] ({Hexanoyl(6-maleimido)}-MAANL-{Doxorubicin(3'-N)}): > 2 mg/mL; for `COc1cccc2c1C(=O)c1c(O)c3c(c(O)c1C2=O)C[C@@](O)(C(=O)CO)C[C@@H]3O[C@H]1C[C@H](NC(=O)[C@H](CC(C)C)NC(=O)[C@H](CC(N)=O)NC(=O)[C@H](C)NC(=O)[C@H](C)NC(=O)[C@H](CC(=O)O)NC(=O)CCOCCOCCOCCOCCN2C(=O)C=CC2=O)[C@H](O)[C@H](C)O1` [QHL-035] (MaleimidoPEG4propanoyl-DAANL-{Doxorubicin(3'-N)}): > 25 mg/mL.

For `COc1cccc2c1C(=O)c1c(O)c3c(c(O)c1C2=O)C[C@@](O)(C(=O)CO)C[C@@H]3O[C@H]1C[C@H](NC(=O)[C@H](CC(C)C)NC(=O)[C@H](CC(N)=O)NC(=O)[C@H](C)NC(=O)[C@H](C)NC(=O)CCOCCOCCNC(=O)CCCN2C(=O)C=CC2=O)[C@H](O)[C@H](C)O1` [QHL-099] ({Butanoyl(4-maleimido)-PEG2}-AANL-{Doxorubicin(3'-N)}), the solubility is > 20 mg/mL.
